Test results reported in the supplement of paper PMC10567573.

B1: SMTNL2 (parent)
chain: ETAAGKGKGEARARLKRSQSFGVA

Variants of: B1
Assay: protein stability index of a GFP-peptide fusion (GPS, HEK-293T) (PSI 1-6); higher = more stable
Settings: c terminus: a fixed tail appended
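Also: lentivirally expressed fusions sorted by FACS into six bins by GFP to DsRed ratio, PSI derived from sequencing read proportions per bin multiplied by bin number.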

Variant	protein stability index
ETAAGKGKGEARARSKRSQSFGVA [L15S]	4.76
ETAAGKGKGEARARTKRSQSFGVA [L15T]	3.83
ETAAGKGKGEARARVKRSQSFGVA [L15V]	4.76
ETAAGKGKGEARARWKRSQSFGVA [L15W]	4.29
ETAAGKGKGEARARYKRSQSFGVA [L15Y]	4.09
ETAAGKGKGEARARLARSQSFGVA [K16A]	4
ETAAGKGKGEARARLCRSQSFGVA [K16C]	3.77
ETAAGKGKGEARARLDRSQSFGVA [K16D]	4.62
ETAAGKGKGEARARLERSQSFGVA [K16E]	4.57
ETAAGKGKGEARARLFRSQSFGVA [K16F]	3.89
ETAAGKGKGEARARLGRSQSFGVA [K16G]	4.67
ETAAGKGKGEARARLHRSQSFGVA [K16H]	4
ETAAGKGKGEARARLIRSQSFGVA [K16I]	3.35
ETAAGKGKGEARARLLRSQSFGVA [K16L]	3.62
ETAAGKGKGEARARLMRSQSFGVA [K16M]	3.83
ETAAGKGKGEARARLNRSQSFGVA [K16N]	4.46
ETAAGKGKGEARARLPRSQSFGVA [K16P]	4.03
ETAAGKGKGEARARLQRSQSFGVA [K16Q]	4.21
ETAAGKGKGEARARLRRSQSFGVA [K16R]	4.4
ETAAGKGKGEARARLSRSQSFGVA [K16S]	4.35
ETAAGKGKGEARARLTRSQSFGVA [K16T]	4.39
ETAAGKGKGEARARLVRSQSFGVA [K16V]	3.9
ETAAGKGKGEARARLWRSQSFGVA [K16W]	2.59
ETAAGKGKGEARARLYRSQSFGVA [K16Y]	3.74
ETAAGKGKGEARARLKASQSFGVA [R17A]	4.14
ETAAGKGKGEARARLKCSQSFGVA [R17C]	3.62

Variant	protein stability index
ETAAGKGKGEARARLKDSQSFGVA [R17D]	4.31
ETAAGKGKGEARARLKESQSFGVA [R17E]	4.65
ETAAGKGKGEARARLKFSQSFGVA [R17F]	3.19
ETAAGKGKGEARARLKGSQSFGVA [R17G]	4.24
ETAAGKGKGEARARLKHSQSFGVA [R17H]	4.54
ETAAGKGKGEARARLKISQSFGVA [R17I]	3.82
ETAAGKGKGEARARLKKSQSFGVA [R17K]	4.6
ETAAGKGKGEARARLKLSQSFGVA [R17L]	3.76
ETAAGKGKGEARARLKMSQSFGVA [R17M]	4.09
ETAAGKGKGEARARLKNSQSFGVA [R17N]	4.54
ETAAGKGKGEARARLKPSQSFGVA [R17P]	3.23
ETAAGKGKGEARARLKQSQSFGVA [R17Q]	4.67
ETAAGKGKGEARARLKSSQSFGVA [R17S]	4.18
ETAAGKGKGEARARLKTSQSFGVA [R17T]	4.17
ETAAGKGKGEARARLKVSQSFGVA [R17V]	3.59
ETAAGKGKGEARARLKWSQSFGVA [R17W]	2.95
ETAAGKGKGEARARLKYSQSFGVA [R17Y]	3.81
ETAAGKGKGEARARLKRAQSFGVA [S18A]	4.22
ETAAGKGKGEARARLKRCQSFGVA [S18C]	3.81
ETAAGKGKGEARARLKRDQSFGVA [S18D]	4.46
ETAAGKGKGEARARLKREQSFGVA [S18E]	4.36
ETAAGKGKGEARARLKRFQSFGVA [S18F]	3.65
ETAAGKGKGEARARLKRGQSFGVA [S18G]	4.6
ETAAGKGKGEARARLKRHQSFGVA [S18H]	4.02
ETAAGKGKGEARARLKRIQSFGVA [S18I]	3.52
ETAAGKGKGEARARLKRKQSFGVA [S18K]	4.43

Variant	protein stability index
ETAAGKGKGEARARLKRLQSFGVA [S18L]	3.49
ETAAGKGKGEARARLKRMQSFGVA [S18M]	3.69
ETAAGKGKGEARARLKRNQSFGVA [S18N]	4.5
ETAAGKGKGEARARLKRPQSFGVA [S18P]	4.01
ETAAGKGKGEARARLKRQQSFGVA [S18Q]	4.43
ETAAGKGKGEARARLKRRQSFGVA [S18R]	4.26
ETAAGKGKGEARARLKRTQSFGVA [S18T]	4.22
ETAAGKGKGEARARLKRVQSFGVA [S18V]	3.94
ETAAGKGKGEARARLKRWQSFGVA [S18W]	3.64
ETAAGKGKGEARARLKRYQSFGVA [S18Y]	2.89
ETAAGKGKGEARARLKRSASFGVA [Q19A]	4.35
ETAAGKGKGEARARLKRSCSFGVA [Q19C]	4.09
ETAAGKGKGEARARLKRSDSFGVA [Q19D]	4.61
ETAAGKGKGEARARLKRSESFGVA [Q19E]	5.15
ETAAGKGKGEARARLKRSFSFGVA [Q19F]	3.67
ETAAGKGKGEARARLKRSGSFGVA [Q19G]	4.38
ETAAGKGKGEARARLKRSHSFGVA [Q19H]	4.81
ETAAGKGKGEARARLKRSISFGVA [Q19I]	3.27
ETAAGKGKGEARARLKRSKSFGVA [Q19K]	4.46
ETAAGKGKGEARARLKRSLSFGVA [Q19L]	4.08
ETAAGKGKGEARARLKRSMSFGVA [Q19M]	4.18
ETAAGKGKGEARARLKRSNSFGVA [Q19N]	4.89
ETAAGKGKGEARARLKRSPSFGVA [Q19P]	4.45
ETAAGKGKGEARARLKRSRSFGVA [Q19R]	4.3
ETAAGKGKGEARARLKRSSSFGVA [Q19S]	3.19
ETAAGKGKGEARARLKRSTSFGVA [Q19T]	4.68

Variant	protein stability index
ETAAGKGKGEARARLKRSVSFGVA [Q19V]	3.96
ETAAGKGKGEARARLKRSWSFGVA [Q19W]	4.33
ETAAGKGKGEARARLKRSYSFGVA [Q19Y]	3.89
ETAAGKGKGEARARLKRSQAFGVA [S20A]	4.56
ETAAGKGKGEARARLKRSQCFGVA [S20C]	4.51
ETAAGKGKGEARARLKRSQDFGVA [S20D]	4.58
ETAAGKGKGEARARLKRSQEFGVA [S20E]	4.87
ETAAGKGKGEARARLKRSQFFGVA [S20F]	4.09
ETAAGKGKGEARARLKRSQGFGVA [S20G]	3.76
ETAAGKGKGEARARLKRSQHFGVA [S20H]	4.26
ETAAGKGKGEARARLKRSQIFGVA [S20I]	3.5
ETAAGKGKGEARARLKRSQKFGVA [S20K]	4.69
ETAAGKGKGEARARLKRSQLFGVA [S20L]	4.02
ETAAGKGKGEARARLKRSQMFGVA [S20M]	4.3
ETAAGKGKGEARARLKRSQNFGVA [S20N]	4.3
ETAAGKGKGEARARLKRSQPFGVA [S20P]	4.27
ETAAGKGKGEARARLKRSQQFGVA [S20Q]	4.08
ETAAGKGKGEARARLKRSQRFGVA [S20R]	4.09
ETAAGKGKGEARARLKRSQTFGVA [S20T]	4.77
ETAAGKGKGEARARLKRSQVFGVA [S20V]	4.27
ETAAGKGKGEARARLKRSQWFGVA [S20W]	3.02
ETAAGKGKGEARARLKRSQYFGVA [S20Y]	3.98
ETAAGKGKGEARARLKRSQSAGVA [F21A]	5.25
ETAAGKGKGEARARLKRSQSCGVA [F21C]	5.02
ETAAGKGKGEARARLKRSQSDGVA [F21D]	5.51
ETAAGKGKGEARARLKRSQSEGVA [F21E]	5.45

Variant	protein stability index
ETAAGKGKGEARARLKRSQSGGVA [F21G]	4.08
ETAAGKGKGEARARLKRSQSHGVA [F21H]	4.96
ETAAGKGKGEARARLKRSQSIGVA [F21I]	5.28
ETAAGKGKGEARARLKRSQSKGVA [F21K]	5.23
ETAAGKGKGEARARLKRSQSLGVA [F21L]	5.02
ETAAGKGKGEARARLKRSQSMGVA [F21M]	4.3
ETAAGKGKGEARARLKRSQSNGVA [F21N]	5
ETAAGKGKGEARARLKRSQSPGVA [F21P]	5.12
ETAAGKGKGEARARLKRSQSQGVA [F21Q]	5.2
ETAAGKGKGEARARLKRSQSRGVA [F21R]	4.23
ETAAGKGKGEARARLKRSQSSGVA [F21S]	5.07
ETAAGKGKGEARARLKRSQSTGVA [F21T]	5.16
ETAAGKGKGEARARLKRSQSVGVA [F21V]	5.25
ETAAGKGKGEARARLKRSQSWGVA [F21W]	3.22
ETAAGKGKGEARARLKRSQSYGVA [F21Y]	4.65
ETAAGKGKGEARARLKRSQSFAVA [G22A]	4.2
ETAAGKGKGEARARLKRSQSFCVA [G22C]	4.84
ETAAGKGKGEARARLKRSQSFDVA [G22D]	5.1
ETAAGKGKGEARARLKRSQSFEVA [G22E]	5.65
ETAAGKGKGEARARLKRSQSFFVA [G22F]	2.84
ETAAGKGKGEARARLKRSQSFHVA [G22H]	4.14
ETAAGKGKGEARARLKRSQSFIVA [G22I]	3.9
ETAAGKGKGEARARLKRSQSFKVA [G22K]	4.81
ETAAGKGKGEARARLKRSQSFLVA [G22L]	4.1
ETAAGKGKGEARARLKRSQSFMVA [G22M]	3.86
ETAAGKGKGEARARLKRSQSFNVA [G22N]	4.76

Variant	protein stability index
ETAAGKGKGEARARLKRSQSFPVA [G22P]	5.71
ETAAGKGKGEARARLKRSQSFQVA [G22Q]	4.36
ETAAGKGKGEARARLKRSQSFRVA [G22R]	4.28
ETAAGKGKGEARARLKRSQSFSVA [G22S]	5.13
ETAAGKGKGEARARLKRSQSFTVA [G22T]	4.31
ETAAGKGKGEARARLKRSQSFVVA [G22V]	4.32
ETAAGKGKGEARARLKRSQSFWVA [G22W]	2.81
ETAAGKGKGEARARLKRSQSFYVA [G22Y]	3.84
ETAAGKGKGEARARLKRSQSFGAA [V23A]	5.1
ETAAGKGKGEARARLKRSQSFGCA [V23C]	4.83
ETAAGKGKGEARARLKRSQSFGDA [V23D]	4.84
ETAAGKGKGEARARLKRSQSFGEA [V23E]	5.35
ETAAGKGKGEARARLKRSQSFGFA [V23F]	3.98
ETAAGKGKGEARARLKRSQSFGGA [V23G]	5.23
ETAAGKGKGEARARLKRSQSFGHA [V23H]	5.02
ETAAGKGKGEARARLKRSQSFGIA [V23I]	4.39
ETAAGKGKGEARARLKRSQSFGKA [V23K]	4.95
ETAAGKGKGEARARLKRSQSFGLA [V23L]	3.68
ETAAGKGKGEARARLKRSQSFGMA [V23M]	4.84
ETAAGKGKGEARARLKRSQSFGNA [V23N]	4.68
ETAAGKGKGEARARLKRSQSFGPA [V23P]	4.62
ETAAGKGKGEARARLKRSQSFGQA [V23Q]	4.94
ETAAGKGKGEARARLKRSQSFGRA [V23R]	4.89
ETAAGKGKGEARARLKRSQSFGSA [V23S]	5.17
ETAAGKGKGEARARLKRSQSFGTA [V23T]	4.75
ETAAGKGKGEARARLKRSQSFGWA [V23W]	3.96

Variant	protein stability index
ETAAGKGKGEARARLKRSQSFGYA [V23Y]	4.11
ETAAGKGKGEARARLKRSQSFGVC [A24C]	4.28
ETAAGKGKGEARARLKRSQSFGVD [A24D]	4.9
ETAAGKGKGEARARLKRSQSFGVE [A24E]	4.71
ETAAGKGKGEARARLKRSQSFGVF [A24F]	3.97
ETAAGKGKGEARARLKRSQSFGVG [A24G]	4.6
ETAAGKGKGEARARLKRSQSFGVH [A24H]	4.27
ETAAGKGKGEARARLKRSQSFGVI [A24I]	3.75
ETAAGKGKGEARARLKRSQSFGVK [A24K]	4.41
ETAAGKGKGEARARLKRSQSFGVL [A24L]	4.49
ETAAGKGKGEARARLKRSQSFGVM [A24M]	4.29
ETAAGKGKGEARARLKRSQSFGVN [A24N]	5.09
ETAAGKGKGEARARLKRSQSFGVP [A24P]	4.88
ETAAGKGKGEARARLKRSQSFGVQ [A24Q]	4.51
ETAAGKGKGEARARLKRSQSFGVR [A24R]	4.52
ETAAGKGKGEARARLKRSQSFGVS [A24S]	4.65
ETAAGKGKGEARARLKRSQSFGVT [A24T]	4.23
ETAAGKGKGEARARLKRSQSFGVV [A24V]	4.01
ETAAGKGKGEARARLKRSQSFGVW [A24W]	3.57
ETAAGKGKGEARARLKRSQSFGVY [A24Y]	3.72
